{"source": "paper PMC3744072", "about": "“Analysis of the cartilage proteome from three different mouse models of genetic skeletal diseases reveals common and discrete disease signatures” (Biology Open, 2013)", "proteins": {"B1": {"name": "matrilin-4 (mouse) (natural protein, mouse (endogenous in mouse cartilage), UniProt O89029 22-624, looked up)", "chain": "QLQSAGPRCYNGPLDLVFMIDSSRSVRPFEFETMRQFLVGLLRSLDVGLNATRVGVIQYSSQVQSVFPLGAFSRREDMERAIRAVVPLAQGTMTGLAIQYAMNVAFSEAEGARPSEERVPRVLVIVTDGRPQDRVAEVAAQARARGIEIYAVGVQRADVGSLRTMASPPLDQHVFLVESFDLIQEFGLQFQGRLCGKDLCAELVHGCQHLCVNAPGTFYCACNSGYKLAPDNKNCLALDLCAEGTHGCEHLCVNSVDSYFCRCRAGFALQQDQRSCRAIDYCSFGNHSCQHECVSTLAGPQCRCREGHDLLPDGRSCRVRDFCNGVDHGCEFQCVSEGLSFHCLCPEGRRLQADGKSCDRCREGHVDLVLLVDGSKSVRPQNFELVKRFVNQIVDFLDVSPEGTRVGLVQFSSRVRTEFPLGRYGTAAEVKQAVLAVEYMERGTMTGLALRHMVEHSFSEAQGARPRDLNVPRVGLVFTDGRSQDDISVWAARAKEEGIVMYAVGVGKAVEEELREIASEPSELHVSYSPDFSTMTHLLENLKGSICPEEGIGAGTELRSPCECESLVEFQGRTLGALESLTQNLARLTERLEELENQLASRK", "notes": "matrilin-4, mouse, endogenous in cartilage"}, "B2": {"name": "cartilage oligomeric matrix protein (COMP), wild type, mouse (natural protein)", "chain": "not shown", "notes": "cartilage oligomeric matrix protein, mouse, endogenous in chondrocytes; The text calls the retained form consistent with a tetramer; also called wild type COMP; source: endogenous, lysate of isolated costal chondrocytes of Matn3 V194D mice"}}, "key": {"[1]": {"target": "the molecule itself", "experiment": "non-reducing SDS-PAGE and Western blot; sequential extracts (buffer 1: 0.15 M NaCl; buffer 2: 1 M NaCl, 10 mM EDTA; buffer 3: 4 M GuHCl, 10 mM EDTA) of knee cartilage of 3-week-old mice, non-reducing 4-13.5% gels; oligomers assigned by apparent size"}, "[2]": {"target": "the molecule itself", "experiment": "non-reducing SDS-PAGE and Western blot; total protein lysates of isolated chondrocytes of 5-day-old mice, 4-12% gels, non-reduced against reduced (0.1 M DTT); oligomers assigned by apparent size"}}, "note": "Values joined by “and” are separate entries in the source; they are usually repeats but may differ in a detail not shown here. Equal entries are not always repeated.", "data": [{"protein": "B1", "values": [{"measurement": "stoichiometry N", "setting": "[1]", "value": "2 and 3"}]}, {"protein": "B2", "values": [{"measurement": "stoichiometry N", "setting": "[2]", "value": 4}]}]}
